# Results from patent US20110182905A1.
# Target: purified hGM-CSF (Biomol #2514, expressed in E. coli) (human) (UniProt P04141)
# Test: cell-based or functional assay
# purified hGM-CSF (Biomol #2514, expressed in E. coli) (human), sequence (P04141 18-144 limits assumed): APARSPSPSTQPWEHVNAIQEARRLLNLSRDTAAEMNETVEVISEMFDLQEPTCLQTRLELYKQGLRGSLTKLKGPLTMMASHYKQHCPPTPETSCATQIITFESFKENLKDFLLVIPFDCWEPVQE
substance,measurement,value
rat-anti-human-GM-CSF IgG2a BVD2-21C11 (BD #554503) (antibody),"TF-1 assay hGM-CSF (E. coli) [pM], GM-CSF final concentration 1.0 ng/ml",8260 pM
